Key:
[1] = Pharmacokinetics of hGH in the dog after subcutaneous injection of nanoparticle and microparticle formulations (Example 12); assay type: in vivo, beagle dogs; conditions: 1 mg/kg hGH
Experimental: (§1) Twelve naïve beagle dogs (weighing 7 to 10 kg) were treated with the following formulations:
The hGH IR corresponds to a solution of recombinant human growth hormone ([hGH]=4 mg/ml, pH=7.2, 330 mOsm).
Formulation 1 is prepared according to Example 2 and formulation 2 according to Example 7. The hGH is assayed by ELISA (DSL 10-1900 kit).
where: • Cmax is the maximum serum hGH concentration, • T>5 ng/ml is the time when the serum hGH concentration is greater than 5 ng/ml, • AUC represents the area under the curve of serum hGH concentration as a function of time, • RBA represents the bioavailability relative to an Immediate-Release formulation, • T50% auc represents the time required to release 50% of the total hGH released.

[2] = Pharmacokinetics of hGH in the dog after subcutaneous injection of a microparticle formulation (Example 13); assay type: in vivo, beagle dogs; conditions: hGH IR 5 × 0.1 mg/kg per day, Formulation 3 0.5 mg/kg
Experimental: as §1
The hGH IR corresponds to a solution of recombinant human growth hormone ([hGH]=4.1 mg/ml, pH=7.2, 330 mOsm). Formulation 3 is prepared according to Example 9.

hGH IR: solution of recombinant human growth hormone, immediate-release reference
RBA (bioavailability relative to an Immediate-Release formulation) [1]: 100%
T50% auc ± SD (time required to release 50% of the total hGH released) [1]: 4 ± 1 h
T > 5 ng/ml ± SD (time when serum hGH concentration is greater than 5 ng/ml) [1]: 18 ± 3 h
apparent T½ (elimination) [1]: about 2 hours
median time to reach maximum serum concentration [1]: 2 h
time beyond which circulating hGH is no longer quantifiable [1]: 24 h
AUC0-last ± SD ([1]; serum hGH): 3209 ± 276 ng·h/mL
Cmax ± SD (maximum serum hGH concentration) ([1]; serum, ELISA, 1 mg/kg): 582 ± 155 ng/mL
AUC0-last ± SD [2]: 258 ± 26 ng·h/mL
Cmax ± SD (maximum serum hGH concentration) [2]: 90 ± 24 ng/mL
RBA (bioavailability relative to an Immediate-Release formulation) [2]: 100%
T50% auc ± SD [2]: 2 ± 0.3 h
T > 1 ng/ml ± SD [2]: 39 h
